{"source": "patent US8198236B2", "about": "“Methods and compositions for the treatment of cancer” (Washington University, priority 2007, dated 2012)", "molecules": {"B1": {"name": "Mesd: Recombinant full-length mouse Mesd expressed in E. coli, N-terminal polyhistidine tail, lacking the signal peptide (protein)", "chain": "ADTPGEATPPPRKKKDIRDYNDADMARLLEQWEKDDDIEEGDLPEHKRPSAPIDFSKLDPGKPESILKMTKKGKTLMMFVTVSGNPTEKETEEITSLWQGSLFNANYDVQRFIVGSDRAIFMLRDGSYAWEIKDFLVSQDRCAEVTLEGQMYPGKGGGSKEKNKTKPEKAKKKEGDRKPRASKEDNRAGSRREDL", "modifications": "left off: small tags and cut ends", "notes": "Recombinant full-length mouse Mesd expressed in E. coli, N-terminal polyhistidine tail, lacking the signal peptide"}}, "key": {"[1]": {"biological_target": "T1, LRP6 (Homo sapiens, UniProt O75581)", "T1 construct": "expressed in transfected cells; host or cells: human HT1080 cells, retroviral vector pLNCX2", "T1 sequence (O75581 20-1613)": "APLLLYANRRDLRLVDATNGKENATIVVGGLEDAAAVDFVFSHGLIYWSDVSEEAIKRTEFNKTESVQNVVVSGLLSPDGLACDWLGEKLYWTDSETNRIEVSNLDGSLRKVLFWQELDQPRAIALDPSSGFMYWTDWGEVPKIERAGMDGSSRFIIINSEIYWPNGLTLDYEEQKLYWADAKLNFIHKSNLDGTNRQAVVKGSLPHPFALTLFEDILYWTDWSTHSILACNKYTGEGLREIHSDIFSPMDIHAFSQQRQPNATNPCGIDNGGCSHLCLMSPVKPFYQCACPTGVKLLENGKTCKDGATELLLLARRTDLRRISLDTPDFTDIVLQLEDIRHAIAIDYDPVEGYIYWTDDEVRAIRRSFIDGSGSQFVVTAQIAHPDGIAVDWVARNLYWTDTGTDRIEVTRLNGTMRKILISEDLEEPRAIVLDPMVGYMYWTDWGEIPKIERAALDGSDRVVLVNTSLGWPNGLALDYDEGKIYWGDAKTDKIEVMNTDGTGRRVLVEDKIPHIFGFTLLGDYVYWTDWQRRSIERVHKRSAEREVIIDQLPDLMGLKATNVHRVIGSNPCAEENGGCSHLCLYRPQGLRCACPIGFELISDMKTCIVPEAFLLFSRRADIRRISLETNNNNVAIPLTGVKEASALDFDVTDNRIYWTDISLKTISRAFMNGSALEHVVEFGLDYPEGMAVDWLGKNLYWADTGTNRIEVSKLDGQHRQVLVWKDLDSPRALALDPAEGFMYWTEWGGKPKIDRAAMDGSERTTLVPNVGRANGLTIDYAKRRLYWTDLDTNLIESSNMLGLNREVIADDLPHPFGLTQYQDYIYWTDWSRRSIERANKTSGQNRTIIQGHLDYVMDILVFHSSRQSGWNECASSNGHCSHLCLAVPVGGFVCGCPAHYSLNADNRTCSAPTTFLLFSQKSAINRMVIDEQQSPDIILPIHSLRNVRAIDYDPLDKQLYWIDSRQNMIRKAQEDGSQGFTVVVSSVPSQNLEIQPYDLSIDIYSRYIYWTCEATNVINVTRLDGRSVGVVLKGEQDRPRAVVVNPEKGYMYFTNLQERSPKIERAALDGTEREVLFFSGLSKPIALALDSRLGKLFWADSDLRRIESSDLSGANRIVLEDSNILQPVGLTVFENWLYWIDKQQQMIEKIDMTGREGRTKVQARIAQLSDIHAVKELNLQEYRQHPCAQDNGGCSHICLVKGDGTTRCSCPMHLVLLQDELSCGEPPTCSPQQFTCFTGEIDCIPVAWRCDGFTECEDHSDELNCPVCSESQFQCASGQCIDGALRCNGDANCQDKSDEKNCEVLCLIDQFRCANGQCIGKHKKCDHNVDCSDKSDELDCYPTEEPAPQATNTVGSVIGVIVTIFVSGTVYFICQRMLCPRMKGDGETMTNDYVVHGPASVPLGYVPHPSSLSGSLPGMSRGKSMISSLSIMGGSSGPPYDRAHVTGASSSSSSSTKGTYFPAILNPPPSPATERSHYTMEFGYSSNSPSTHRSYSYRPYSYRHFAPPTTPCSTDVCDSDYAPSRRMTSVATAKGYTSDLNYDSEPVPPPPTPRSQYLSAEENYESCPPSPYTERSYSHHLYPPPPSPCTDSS", "assay": "125I-Mesd cell surface binding to LRP6-transduced HT1080 cells", "protocol": "To examine whether Mesd binds with high affinity to most members of the LDLR family at the cell surface, we performed cell surface ligand binding experiments with cells stably transduced with LRP6 cDNA. Human HT1080 cells, which express undetectable levels of LRP6, were transduced with a viral vector alone (pLNCX2) or with vector containing LRP6 cDNA (Li, Y., Oncogene 23: 9129-9135, 2004) and used for ^125I-Mesd binding (FIG. 1A). ^125I-Mesd (5 nM) reached maximal binding after 2 hours incubation at 4° C. with LRP6-expressing HT1080 cells (FIG. 1A).\n(A) Time course of ^125I-Mesd (5 nM) binding to LRP6-transduced HT1080 cells and the control cells. Assay was carried out for the indicated periods at 4° C. in the absence (total) or presence of 500 nM Mesd (non-specific). (B) Saturation binding of ^125I-Mesd to LRP6-transduced HT1080 cells and the control cells. Assay was carried out at indicated concentrations for 3 hours at 4° C. in the absence (total) or presence (non-specific) of 500 nM Mesd. (C) Scatchard plots of data in B. All values are the average of triple determinations with the s.d. indicated by error bars.\nCells (2×10^5) were seeded into 12-well dishes 1 day prior to assay. Ligand-binding buffer (minimal Eagle's medium containing 0.6% BSA with a different concentration of radioligand, 0.6 ml/well) was added to cell monolayers, in the absence or the presence of 500 nM unlabeled RAP or 500 nM unlabeled Mesd, followed with incubation for 0-4 hours at 4° C. Thereafter, overlying buffer containing unbound ligand was removed, and cell monolayers were washed and lysed in low-SDS lysis buffer (62.5 mM Tris-HCl pH 6.8, 0.2% SDS, 10% v/glycerol) and counted.\nTo analyze the Mesd sequences that are required for Mesd to bind to mature LRP6 at the cell surface with high affinity, sequences were compared between mouse Mesd and its homologs from different species. […] We thus generated two truncated Mesd mutants lacking either the N-terminal region, MESD (12-195), or both the N-terminal and C-terminal regions, Mesd (12-155) (FIG. 3A). The ability of these mutants to bind to cell surface LRP6 was then assessed.\nIn this example, a truncated Mesd mutant containing the last 45 amino acids of C-terminal region was generated (FIG. 3A) and its binding affinity for LRP6 was then analyzed. […] (A) Binding analyses of ^125I-Mesd and its mutant Mesd (150-195) (5 nM) to LRP6-transduced HT1080 cells and control cells. (B) Binding analyses of ^125I-Mesd and its mutant Mesd (150-195) (5 nM) to LRP6-transduced HT1080 cells. Assays were carried out for 3 hours at 4° C. in the absence or presence of 500 nM Mesd or its mutant. Values are the means of triple determinations with the s.d. indicated by error bars.\nLRP6-mediated Mesd uptake and degradation was investigated in the experiments illustrated in FIG. 7. (A) LRP6-mediated ^125I-Mesd (5 nM) degradation in LRP6-transduced HT1080 cells and control cells was carried out for 4 hours at 37° C. in the absence or presence of 500 nM Mesd. (B) ^125I-Mesd (5 nM) binding to LRP6-transduced HT1080 cells and the control cells was carried out for 4 hours at 4° C. in the absence or presence of 500 nM Mesd. Values are the means of triple determinations with the s.d. indicated by error bars."}, "[2]": {"tested_on": "cytosolic β-catenin", "assay": "Cytosolic β-catenin level by western blotting in LRP6-transduced HT1080 cells", "type": "cell-based, human", "conditions": "0.5 to 5 nM Mesd, 2 hours at 37° C.", "protocol": "[…] After washing in ice-cold PBS, cells were collected and homogenized in a glass Dounce homogenizer in buffer consisting of 100 mM Tris-HCl pH 7.4, 140 mM NaCl, 2 mM DTT, 2 mM PMSF, and 1× Complete™ protease inhibitors (500 μl/well). The homogenate was centrifuged for 10 minutes at 500 g, and the supernatant was further centrifuged at 100,000 g at 4° C. for 90 minutes. The resulting supernatant was designated the cytosolic fraction. The β-catenin levels were then examined by western blotting using β-catenin-specific antibody from Cell Signaling Technology. The immunoreactive proteins were detected using the ECL™ system (Amersham). Films showing immunoreactive bands were scanned with a Kodak Digital Science DC 120 Zoom Digital Camera and band intensities were analyzed with Kodak Digital Science1D Image Analysis Software.\nβ-catenin is a key molecule in the Wnt/β-catenin signaling pathway. A cytosolic pool of β-catenin interacts with DNA-binding proteins and participates in Wnt signal transduction (Hinck, L., J. Cell Biol. 125: 1327-1340, 1994; Gottardi, C. J., J. Cell Biol. 153: 1049-1060, 2001; Klingelhofer, J., et al., Oncogene 22: 1181-1188, 2003). To determine whether Mesd binding to cell surface LRP6 directly regulates Wnt signaling, we studied the effects of Mesd binding on cytosolic β-catenin levels in HT1080-LRP6 cells. […]"}, "[3]": {"assay": "Mesd in serum after a single i.p. dose (Western blot quantification)", "type": "in vivo, mice", "quoted_text": "In experiments shown in FIG. 23, pharmacokinetics of Mesd peptide and Mesd were examined. FIG. 23A: Amount of Mesd in serum following a single dose of protein administration. Mice were dosed at 5, 10, 20 mg/kg of Mesd via i.p. and the serum samples were collected from individual mice at the indicated time points. The levels of Mesd in serum were quantified by comparison to Mesd pure protein with known concentrations in Western blot analysis. Values are the average of triple determinations with S.D. indicated by error bars. […] Samples were obtained by terminal bleed under anesthesia at each of the indicated time points (N=3 animals per time point). Radioactivity was measured using a gamma counter and DPM converted to mass units/mL blood using the specific activity (DPM/mass) of each test substance. Data are plotted as mass U/mL of test substance with standard deviation indicated by error bars."}}}
{"molecule": "B1", "values": [{"measurement": "125I-Mesd binding", "setting": "[1]; 5 nM, 4 hours at 4° C.", "value": 1320, "unit": "fmoles/mg cell protein"}, {"measurement": "Concentration at which Mesd specific binding saturates", "setting": "[1]; LRP6-transduced HT1080 cells, 3 hours at 4° C.", "value": "> 6.4", "unit": "nM"}, {"measurement": "Change in cytosolic β-catenin levels", "setting": "[2]", "value": "no significant change"}, {"measurement": "Absorption after dosing", "setting": "[3]", "value": "rapidly absorbed"}]}
